# Test results as given in patent US20200141935A1, “SYSTEM, METHOD, APPARATUS AND DIAGNOSTIC TEST FOR PREGNANCY” (BARCELONA INSTITUTE FOR GLOBAL HEALTH, priority 2017, published 2020).
# B1: pcsp: circumsporozoite peptide of 64 aminoacids (NVDP[NANP]15) (peptide)
# peptide: NVDPNANPNANPNANPNANPNANPNANPNANPNANPNANPNANPNANPNANPNANPNANPNANP
# Tests used:
# IgG [1] = assay: Multiplex bead-based immunoassay (Luminex): IgG levels (nMFI) against antigens, compared between groups; format: binding, pregnant women
# Excerpt: (§1) Two multiplex suspension array panels were constructed to quantify IgG responses against P. falciparum recombinant proteins and synthetic peptides, using the xMAP™ technology and the Luminex® 100/200™ System (Luminex® Corp., Austin, Tex.). MagPlex® microspheres (magnetic carboxylated polystyrene microparticles, 5.6 μm) with different spectral signatures were selected for each protein (DBL3X, DBL5ϵ, DBL6ϵ, AMA1 and MSP119), peptides (25 VAR2CSA peptides and pCSP), tetanus toxin and bovine serum albumin (BSA). Antigens were covalently coupled to beads following a modification of the Luminex® Corporation protocol. Protein and peptide multiplex arrays were prepared by pooling together equal volumes of coated beads. Plasma samples or the product of DBS elution were analyzed in duplicate at dilution 1:400 for the protein array and 1:100 for the peptide array. A hyperimmune plasma pool composed by 23 plasmas from malaria infected Mozambican pregnant women (HIP-VAR2CSA) was included in each assay plate, in addition to blanks (wells without sample) to assess background levels. A minimum of 50 microspheres were read per spectral signature and results were exported as crude median fluorescent intensity ([…]). Duplicates were averaged and background MFIs were subtracted. A total of 224 plates were analyzed and the intra-assay variation (mean CV of replicates from 20 plasma samples per plate) ranged from 1.4% to 7.3% for the protein array and from 2.5% to 12.4% for the peptide array. The inter-assay variation (variability of positive pool [HIP-VAR2CSA] between 224 plates) was 5% for the protein array and 26% for the peptide array. Results were normalized (nMFI) to account for plate-to-plate variation by […] the background subtracted MFI of each sample with the value of the positive pool in the same plate and dividing by the median of positive pools in all plates.
# (§2) Antibodies were eluted from DBS from Gabon, […] and Kenya, as previously described. Briefly, to achieve a concentration of eluted blood proteins equivalent to a 1:50 plasma dilution antibodies were eluted from four spots of approximately 3 mm in diameter with 200 μl Luminex® assay buffer (1% BSA, 0.05% sodium azide in filtrated PBS [Phosphate-buffered saline]). […]. Controls blood drops were artificially prepared using fresh erythrocytes (blood type 0, assuming a hematocrit approximately of 50%) and freeze plasma from 49 Spanish pregnant women. Filter papers were stored avoiding humidity at −20° C. in Barcelona.
# (§3) Presence or absence of antibodies was defined by finite mixture models (FMM) for pregnancy-specific antigens (VAR2CSA peptides and recombinant domains) and by the mean plus 3 standard deviation (SD) of IgG response from pregnant women from Barcelona for general malaria antigens (AMA1, MSP119, and pCSP).
# (§4) Data was fitted to a normal distribution by logarithmic transformation of nMFIs. Participant's baseline characteristics and parasitological outcomes were compared between study times and areas by univariate analysis (Fisher's tests for binary outcomes or t-Student test for continuous outcomes). Responses were considered not restricted to malaria when seroprevalences were 5% or high among Spanish pregnant women.
# Linear regression models were used to compare antibody levels from Mozambican and Spanish pregnant women. The capacity of antibody levels to mimic malaria trends in Mozambique was analyzed by linear regression models (2010 was compared with 2003-2005 corresponding to a trend of malaria decrease and 2011-2012 with 2010 to a trend of increase) adjusted by treatment, parity, age and HIV.
# The impact of P. falciparum infection during pregnancy on antibodies at delivery was assessed in linear regression models adjusted by age, parity, HIV and treatment. Changes in antibody levels due to parasite density (below or above 200) were assessed by linear regression models adjusted by age, parity, HIV and treatment. […]
# IgG [2] = assay: Multiplex bead-based immunoassay: seroprevalence (finite mixture models or negative control cutoff); format: binding, pregnant women; settings: for Seroprevalence MQ (%): IPTp with mefloquine; for M (OR) / Seroprevalence M (%): Mozambique; for Seroprevalence A (%) / A (OR): anemia; for A (OR): Non-A as reference; for Seroprevalence Non-A (%): non anemia
# Excerpt: as §1, §2, §3, §4
# Seroprevalences between countries (Benin, Gabon and Mozambique for HIV-uninfected and Kenya and Mozambique for HIV-infected), between IPTp intervention group (MQ vs SP for HIV-uninfected and MQ vs Placebo for HIV infected) and anemia status were compared by logistic regression models adjusted by parity, age and treatment.
# The modification of the associations by HIV infection or parity was assessed by including interaction terms into the regression models.
# IgG [3] = assay: Antibody dynamics during pregnancy (time to double, half-life, sero-reversion) from bead-based immunoassay; format: binding, pregnant Mozambican women; settings: women with P. falciparum infection on follow-up; log-linear mixed-effects model
# Excerpt: as §1
# The adjusted effect of infection on antibody levels was analyzed using log-linear mixed-effects regression models incorporating Gaussian random intercepts. […] Time to double the antibody levels (T2x) and half-lives were calculated in weeks from the estimated rates and the boundaries at 95% confidence interval obtained from mixed-effects models for subjects suffering a P. falciparum infection at follow-up independent of antibody status at recruitment (Ab[−or+]/Pf+) and subjects seropositive at recruitment and no infection detected on follow-up (Ab+/Pf−), respectively. In situations that the increase rate is a negative value (rate below 1) or the decay rate is a positive value (rate above 1), the calculated T2x or half-life was reported as infinity. Similarly, the time to sero-reversion was calculated for these subjects using the ratio of the seropositivity cutoff by the average antibody titers at recruitment as decay, i.e. how many times the average titers need to be reduced to be equal the cutoff.
# [4] = nMFI ratio at delivery, Mozambique, adjusted by parity, age, treatment and HIV
molecule,measurement,setting,value
B1,Immunoreactivity: recognition by IgGs at levels above BSA recognition,"IgG [1]; 641 pregnant Mozambican women 2003-2012, mean nMFI above mean BSA nMFI plus 3 SD",above BSA recognition
same,Infection during pregnacy Infection vs no-infection ratio (95% CI),"IgG [1]; nMFI at delivery, Mozambican women followed 2011-2012, adjusted",3.1 (1.75; 5.49)
same,Exposure dependence Decrease 2010 vs 2003-2005 Ratio (95% CI),IgG [1]; [4],0.49 (0.34; 0.71)
same,Exposure dependence Increase 2011-2012 vs 2010 Ratio (95% CI),IgG [1]; [4],1.1 (0.80; 1.52)
same,PW Mz vs PW Bcn Ratio (95% CI),"IgG [1]; nMFI ratio, pregnant Mozambican women vs pregnant Spanish women (N=49)",8.2 (4.84; 13.87)
same,Parasite density Low vs High ratio (95% CI),"IgG [1]; nMFI ratio, below or above 200 genomes per microliter, adjusted",1.81 (0.75; 4.37)
same,SeroPrev Delivery %,IgG [2]; 239 pregnant Mozambican women followed 2011-2012,64%
same,Seroprevalence MQ (%),IgG [2]; HIV infected,12%
same,Seroprevalence K (%),"IgG [2]; HIV infected, Kenya, at delivery",21%
same,MQ (OR),"IgG [2]; HIV infected, MQ, Placebo as reference",0.69 (0.44; 1.07)
same,M (OR),"IgG [2]; HIV infected, Kenya as reference",0.41 (0.26; 0.64)
same,Seroprevalence M (%),"IgG [2]; HIV infected, at delivery",10%
same,Seroprevalence PL (%),"IgG [2]; HIV infected, Placebo group",17%
same,Seroprevalence A (%),IgG [2]; HIV infected,12%
same,A (OR),IgG [2]; HIV infected,0.86 (0.52; 1.41)
same,Seroprevalence Non-A (%),IgG [2]; HIV infected,17%
same,Seroprevalence B (%),"IgG [2]; HIV uninfected, Benin, at delivery",44%
same,G (OR),"IgG [2]; HIV uninfected, Gabon, Benin as reference",0.37 (0.24; 0.57)
same,Seroprevalence G (%),"IgG [2]; HIV uninfected, Gabon, at delivery",23%
same,Seroprevalence MQ (%),IgG [2]; HIV uninfected,31%
same,Seroprevalence SP (%),"IgG [2]; HIV uninfected, IPTp with sulfadoxine-pyrimethamine",34%
same,M (OR),"IgG [2]; HIV uninfected, Benin as reference",0.19 (0.14; 0.26)
same,Seroprevalence M (%),"IgG [2]; HIV uninfected, at delivery",13%
same,SP (OR),"IgG [2]; HIV uninfected, SP, MQ as reference",1.08 (0.84; 1.38)
same,Seroprevalence A (%),IgG [2]; HIV uninfected,34%
same,A (OR),IgG [2]; HIV uninfected,1.19 (0.94; 1.51)
same,Seroprevalence Non-A (%),IgG [2]; HIV uninfected,31%
same,Seroprevalence 2003/4 (%),"IgG [2]; Mozambican pregnant women at delivery, 2003/4",48%
same,Seroprevalence 2005 (%),"IgG [2]; Mozambican pregnant women at delivery, 2005",57%
same,Seroprevalence 2010 (%),"IgG [2]; Mozambican pregnant women at delivery, 2010",36%
same,Seroprevalence 2011 (%),"IgG [2]; Mozambican pregnant women at delivery, 2011",40%
same,Seroprevalence 2012 (%),"IgG [2]; Mozambican pregnant women at delivery, 2012",46%
same,SeroPrev PW Bcn (%),IgG [2]; seroprevalence among pregnant Spanish women never exposed to malaria,10%
same,Decrease (OR),"IgG [2]; seroprevalence odds ratio 2010 vs 2003/5, Mozambique, adjusted",0.43 (0.27; 0.69)
same,Increase (OR),"IgG [2]; seroprevalence odds ratio 2011/12 vs 2010, Mozambique, adjusted",1.19 (0.80; 1.78)
same,Antibody dynamics Time to double weeks (95% CI),IgG [3],51.33 (22.30; ∞) weeks
